What all share (test): holdup assay
What all share (set-up): key: below the threshold = too weak to quantify, mostly under pKd 3.1 to 4
Holding throughout (settings): plain residues with an end cap or a label only (N-terminal biotin on a linker: ado-ado)

Assay [1] concerns the target T1, MPP7, Q5T2T1.
T1 sequence (Q5T2T1 134-230, limits assumed, looked up): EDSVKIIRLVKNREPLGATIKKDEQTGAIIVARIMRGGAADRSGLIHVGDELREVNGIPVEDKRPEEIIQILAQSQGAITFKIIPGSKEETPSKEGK

For assay [2], the target named is GRID2IP_2, A4D2P6.
Sequence of GRID2IP_2, A4D2P6 (A4D2P6 272-370): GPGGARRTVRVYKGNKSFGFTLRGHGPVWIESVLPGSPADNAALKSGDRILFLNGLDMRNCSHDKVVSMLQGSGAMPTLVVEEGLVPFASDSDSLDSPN
In assay [3] the target is IL16_3, Q14005.
Sequence of IL16_3, Q14005 (Q14005 1107-1207): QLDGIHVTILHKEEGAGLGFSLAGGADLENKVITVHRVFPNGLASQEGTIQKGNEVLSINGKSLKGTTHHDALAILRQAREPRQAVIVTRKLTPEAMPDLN
The target of assay [4] is T2, APBA1_2, Q02410.
T2 sequence (Q02410 742-832, limits assumed, looked up): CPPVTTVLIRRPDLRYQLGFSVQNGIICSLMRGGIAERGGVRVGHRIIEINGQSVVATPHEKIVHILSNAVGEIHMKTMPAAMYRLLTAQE

Assay [5] has as its target T3, ARHGEF11, O15085.
T3 sequence (O15085 42-136, limits assumed, looked up): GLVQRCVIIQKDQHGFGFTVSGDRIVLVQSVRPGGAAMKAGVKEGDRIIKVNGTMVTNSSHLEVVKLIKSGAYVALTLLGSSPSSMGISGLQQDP

Assay [6] addresses Inadl_4, Q8NI35.
For assay [7], the target named is GRIP2_5, Q9C0E4.
Sequence of GRIP2_5, Q9C0E4 (Q9C0E4 544-642): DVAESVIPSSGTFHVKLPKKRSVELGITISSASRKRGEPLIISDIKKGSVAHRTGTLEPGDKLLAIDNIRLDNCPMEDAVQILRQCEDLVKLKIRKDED
For assay [8], the target named is T4, HTRA4, P83105.
T4 sequence (P83105 378-476, limits assumed, looked up): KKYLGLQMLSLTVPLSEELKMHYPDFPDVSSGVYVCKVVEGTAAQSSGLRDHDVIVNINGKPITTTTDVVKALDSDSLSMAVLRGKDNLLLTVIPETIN

In assay [9] the target is T5, MPP6, Q9NZW5.
T5 sequence (Q9NZW5 125-219, limits assumed, looked up): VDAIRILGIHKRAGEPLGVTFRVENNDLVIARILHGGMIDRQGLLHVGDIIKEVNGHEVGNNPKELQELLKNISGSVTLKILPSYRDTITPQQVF

Assay [10] concerns the target DLG2_3, Q15700.
The target in assay [11] is T6, GRIP1_4, Q9Y3R0.
T6 sequence (Q9Y3R0 467-571, limits assumed, looked up): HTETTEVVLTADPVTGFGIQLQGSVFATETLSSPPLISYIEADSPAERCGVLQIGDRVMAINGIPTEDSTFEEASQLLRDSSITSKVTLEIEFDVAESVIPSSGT

The target of assay [12] is T7, SNTG2, Q9NY99.
T7 sequence (Q9NY99 68-166, limits assumed, looked up): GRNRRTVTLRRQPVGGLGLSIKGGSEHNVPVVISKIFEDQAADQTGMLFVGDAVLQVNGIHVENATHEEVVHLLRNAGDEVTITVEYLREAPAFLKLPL

Assay [13] has as its target T8, DLG3_3, Q92796.
T8 sequence (Q92796 374-475, limits assumed, looked up): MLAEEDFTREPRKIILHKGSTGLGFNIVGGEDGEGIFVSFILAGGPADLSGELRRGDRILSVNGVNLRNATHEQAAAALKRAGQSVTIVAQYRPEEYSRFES

Assay [14] has as its target IL16_1, Q14005.
Assay [15] deals with T9, DFNB31_1, Q9P202.
T9 sequence (Q9P202 135-233, limits assumed, looked up): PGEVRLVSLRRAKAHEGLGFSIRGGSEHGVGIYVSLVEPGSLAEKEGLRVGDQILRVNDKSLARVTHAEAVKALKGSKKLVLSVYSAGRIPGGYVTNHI

Assay [16] addresses NHERF2_2, Q15599.
Assay [17] addresses T10, GRIP1_2, Q9Y3R0.
T10 sequence (Q9Y3R0 145-248, limits assumed, looked up): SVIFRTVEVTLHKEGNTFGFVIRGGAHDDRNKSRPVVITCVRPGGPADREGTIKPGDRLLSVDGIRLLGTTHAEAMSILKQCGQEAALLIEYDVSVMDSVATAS

In assay [18] the target is PARD3_3, Q8TEW0.
Sequence of PARD3_3, Q8TEW0 (Q8TEW0 582-685): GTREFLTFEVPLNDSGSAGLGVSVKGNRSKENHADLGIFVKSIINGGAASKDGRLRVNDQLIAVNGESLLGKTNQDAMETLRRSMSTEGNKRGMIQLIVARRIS
Assay [19] addresses T11, APBA2_2, Q99767.
T11 sequence (Q99767 654-744, limits assumed, looked up): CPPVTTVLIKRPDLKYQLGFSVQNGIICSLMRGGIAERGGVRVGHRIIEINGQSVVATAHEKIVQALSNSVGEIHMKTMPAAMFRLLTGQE

Assay [20] addresses T12, GRIP1_3, Q9Y3R0.
T12 sequence (Q9Y3R0 247-346, limits assumed, looked up): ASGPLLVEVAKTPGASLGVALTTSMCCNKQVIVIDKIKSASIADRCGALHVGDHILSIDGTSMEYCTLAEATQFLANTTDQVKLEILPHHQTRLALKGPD

The target in assay [21] is T13, APBA1_1, Q02410.
T13 sequence (Q02410 651-752, limits assumed, looked up): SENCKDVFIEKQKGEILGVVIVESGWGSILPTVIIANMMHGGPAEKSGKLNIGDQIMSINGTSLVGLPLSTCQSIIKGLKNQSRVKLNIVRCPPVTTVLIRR

Assay [22] deals with DLG5_1, Q8TDM6.
Sequence of DLG5_1, Q8TDM6 (Q8TDM6 617-713): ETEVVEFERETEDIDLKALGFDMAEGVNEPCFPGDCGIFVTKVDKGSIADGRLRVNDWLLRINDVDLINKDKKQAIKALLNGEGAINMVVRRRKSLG
In assay [23] the target is MAST1, Q9Y2H9.
Sequence of MAST1, Q9Y2H9 (Q9Y2H9 962-1065): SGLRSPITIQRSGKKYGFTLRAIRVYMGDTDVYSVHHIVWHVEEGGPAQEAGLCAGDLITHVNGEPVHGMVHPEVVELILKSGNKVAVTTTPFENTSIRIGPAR
Assay [24] concerns the target T14, PDZD7_3, Q9H5P4.
T14 sequence (Q9H5P4 857-944, limits assumed, looked up): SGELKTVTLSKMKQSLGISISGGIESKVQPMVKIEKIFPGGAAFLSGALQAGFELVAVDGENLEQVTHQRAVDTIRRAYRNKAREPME

Sequence of NHERF2_2, Q15599 (Q15599 142-238): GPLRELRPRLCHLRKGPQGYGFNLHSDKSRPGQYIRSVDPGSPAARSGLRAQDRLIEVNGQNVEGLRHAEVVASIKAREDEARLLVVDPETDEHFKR
Sequence of Inadl_4, Q8NI35 (Q8NI35 547-651): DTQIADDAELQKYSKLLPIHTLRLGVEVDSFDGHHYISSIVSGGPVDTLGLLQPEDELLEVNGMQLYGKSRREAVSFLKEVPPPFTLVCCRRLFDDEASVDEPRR
Sequence of IL16_1, Q14005 (Q14005 210-306): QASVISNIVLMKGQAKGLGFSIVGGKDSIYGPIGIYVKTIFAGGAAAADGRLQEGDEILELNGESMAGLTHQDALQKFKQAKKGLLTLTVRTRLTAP

For DRIQSCLSDA [SBF1, O95248], the negative-log Kd (pKd) result in [1], in assay [2], in assay [3], in assay [4], in assay [5] and in [6] was “below the threshold” in each case. Besides, the negative-log Kd (pKd) (as a rule, −log10 of the Kd, conventionally taken in molar units) in assay [7] was “below the threshold”; in assay [8], “below the threshold”; in assay [9] it was “below the threshold”; in assay [10], 3.78; in assay [11] it was “below the threshold”; in assay [12] it was “below the threshold”. Besides, the pKd result in assay [13], in [14], in assay [15], in [16], in assay [17] and in assay [18] was “below the threshold” each time. Besides, the pKd in [19] was 3.48; in assay [20], “below the threshold”; in assay [21], “below the threshold”; in assay [22], “below the threshold”; in assay [23], 3.62; in [24], “below the threshold”.

As for LKDDELKTKL [SLCO1A2, P46721], the pKd result is “below the threshold” in [1]; 4.55 in assay [2]; “below the threshold” in [3]; “below the threshold” in [4]; 3.98 in [5]; “below the threshold” in assay [6]. In addition, the negative logarithm of the Kd (pKd) result in [7], in assay [8], in assay [9], in assay [10], in assay [11] and in [12] was “below the threshold” each time. Moreover, the pKd entry in assay [13] was “below the threshold”; in [14], “below the threshold”; in assay [15], “below the threshold”; in assay [16] it was 4.67; in [17], “below the threshold”; in assay [18] it was “below the threshold”. The pKd result in assay [19] was “below the threshold”; in assay [20], “below the threshold”; in assay [21] it was “below the threshold”; in assay [22] it was “below the threshold”; in assay [23], 4.64; in assay [24], 4.43.

For PSVGSKKTVL [REELD1, A0A1B0GV85], the pKd entry is “below the threshold” in assay [1]; 4.75 in assay [2]; “below the threshold” in [3]; 3.56 in [4]; 4.2 in assay [5]; “below the threshold” in [6]. For the same molecule, the pKd entry in assay [7] was “below the threshold”; in assay [8], 3.91; in assay [9], “below the threshold”; in assay [10], “below the threshold”; in assay [11], “below the threshold”; in assay [12] it was 3.66. Also, the pKd result in [13] is “below the threshold”; in [14] it was “below the threshold”; in [15], “below the threshold”; in [16], 3.68; in [17] it was “below the threshold”; in assay [18], “below the threshold”. For the same molecule, the negative logarithm of the Kd (pKd) result in assay [19] was “below the threshold”; in [20] it was “below the threshold”; in assay [21], “below the threshold”; in assay [22], “below the threshold”; in [23], 4.2; in assay [24], 4.67.

With SFISKKEWYV [NECTIN1, Q15223], the pKd was 5.11 in assay [1]; “below the threshold” in [2]; “below the threshold” in assay [3]; 3.82 in [4]; 4.41 in assay [5]; “below the threshold” in [6]. Further, the pKd entry in assay [7] is “below the threshold”; in assay [8] it was “below the threshold”; in assay [9], 4.42; in assay [10], 3.63; in [11] it was “below the threshold”; in assay [12] it was 3.49. Also, the pKd result in assay [13] is “below the threshold”; in assay [14], “below the threshold”; in [15], “below the threshold”; in assay [16], “below the threshold”; in assay [17], “below the threshold”; in [18], 4.53. Further, the pKd result is “below the threshold” in [19]; “below the threshold” in [20]; “below the threshold” in assay [21]; “below the threshold” in assay [22]; 3.95 in assay [23]; “below the threshold” in assay [24].
